Paper PMC8591536, “DNA asymmetry promotes SUMO modification of the single‐stranded DNA‐binding protein RPA” (The EMBO Journal, 2021)

T1: Siz2∆CT K65E K66E (Saccharomyces cerevisiae? (budding …, UniProt Q12216 1-420, K65E;K66E))
T1 sequence: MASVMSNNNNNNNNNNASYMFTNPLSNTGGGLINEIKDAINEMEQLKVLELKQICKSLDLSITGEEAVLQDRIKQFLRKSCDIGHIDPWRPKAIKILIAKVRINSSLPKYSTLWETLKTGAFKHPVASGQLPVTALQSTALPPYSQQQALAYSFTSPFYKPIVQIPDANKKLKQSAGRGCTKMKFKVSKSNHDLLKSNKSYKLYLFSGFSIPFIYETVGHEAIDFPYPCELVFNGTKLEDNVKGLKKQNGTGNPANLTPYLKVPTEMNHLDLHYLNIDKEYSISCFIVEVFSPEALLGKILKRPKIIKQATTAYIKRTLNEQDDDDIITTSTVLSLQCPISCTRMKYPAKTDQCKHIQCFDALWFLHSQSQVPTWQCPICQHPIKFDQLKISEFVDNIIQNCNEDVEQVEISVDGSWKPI


Experiments:
[1] = biological target: T1, Siz2∆CT K65E K66E; assay: fluorescence polarization; FP: 20 mM HEPES pH 7.5, 125 mM NaCl, 0.1% Tween-20, 23°C, 50 nM DNA (RPA/SUMO-RPA on ss32: 1 nM DNA, plus 5 mM MgCl2, 1 mM DTT); EMSA: same buffer with 5 mM MgCl2 (Fig 8 also 1 mM DTT), 23°C, 6% gel in 0.5x TBE; conditions: protein: recombinant; tags: His6-thioredoxin removed with TEV; label: 5' 6-FAM on strand 1; blunt
[2] = biological target: Siz2 full length;RPA (Rfa1/Rfa2/Rfa3) (Saccharomyces cerevisiae? (budding …, UniProt Q12216;P22336;P26754;P26755 1-726;1-621;1-273;1-122, |)); assay: EMSA; Siz2 titrated into RPA-DNA; 5 mM MgCl2; FP: 20 mM HEPES pH 7.5, 125 mM NaCl, 0.1% Tween-20, 23°C, 50 nM DNA (RPA/SUMO-RPA on ss32: 1 nM DNA, plus 5 mM MgCl2, 1 mM DTT); EMSA: same buffer with 5 mM MgCl2 (Fig 8 also 1 mM DTT), 23°C, 6% gel in 0.5x TBE; conditions: protein: recombinant;recombinant; tags: His6-Smt3 removed with Ulp1;noncleavable N-terminal His6 on Rfa2; copies: 1;1;1;1; label: 5' 6-FAM on strand 2 (fw20); 20 bp duplex, 3' overhang 32 nt (dT)
Siz2 full length;RPA (Rfa1/Rfa2/Rfa3) (Saccharomyces cerevisiae?, sequence (P22336 whole entry, chain 2 of 3): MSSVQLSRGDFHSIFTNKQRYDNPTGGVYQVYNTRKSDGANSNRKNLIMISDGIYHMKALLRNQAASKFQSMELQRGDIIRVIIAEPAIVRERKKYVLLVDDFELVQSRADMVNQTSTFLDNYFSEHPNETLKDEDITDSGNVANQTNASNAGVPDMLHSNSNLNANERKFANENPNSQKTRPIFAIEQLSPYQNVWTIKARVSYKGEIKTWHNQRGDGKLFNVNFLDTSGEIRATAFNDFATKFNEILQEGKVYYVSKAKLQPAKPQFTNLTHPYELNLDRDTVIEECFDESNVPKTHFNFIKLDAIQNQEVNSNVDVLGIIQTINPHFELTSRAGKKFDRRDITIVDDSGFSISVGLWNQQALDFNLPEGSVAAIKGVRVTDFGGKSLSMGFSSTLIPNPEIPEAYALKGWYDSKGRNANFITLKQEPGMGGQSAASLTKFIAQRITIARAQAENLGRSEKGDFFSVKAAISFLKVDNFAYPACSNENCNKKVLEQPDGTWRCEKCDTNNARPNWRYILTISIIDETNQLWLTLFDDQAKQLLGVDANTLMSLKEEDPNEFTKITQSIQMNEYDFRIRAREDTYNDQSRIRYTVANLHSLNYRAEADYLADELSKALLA
Siz2 full length;RPA (Rfa1/Rfa2/Rfa3) (Saccharomyces cerevisiae?, sequence (P26754 whole entry, chain 3 of 3): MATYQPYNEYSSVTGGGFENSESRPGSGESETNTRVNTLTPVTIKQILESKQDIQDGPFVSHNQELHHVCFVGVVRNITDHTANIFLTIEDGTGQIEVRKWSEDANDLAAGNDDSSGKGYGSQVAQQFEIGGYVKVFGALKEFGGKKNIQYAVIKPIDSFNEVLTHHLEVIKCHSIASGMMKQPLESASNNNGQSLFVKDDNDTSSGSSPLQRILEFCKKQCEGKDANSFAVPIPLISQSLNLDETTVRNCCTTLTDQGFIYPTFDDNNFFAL
Siz2 full length;RPA (Rfa1/Rfa2/Rfa3) (Saccharomyces cerevisiae?, sequence (P26755 whole entry, chain 4 of 3): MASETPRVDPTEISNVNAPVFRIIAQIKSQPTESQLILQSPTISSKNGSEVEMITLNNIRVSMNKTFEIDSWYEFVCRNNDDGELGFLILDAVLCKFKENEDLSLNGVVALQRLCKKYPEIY

| Binder | binding result [1] | binding result [2] |
| --- | --- | --- |
| 6-FAM-ds20 (dsDNA) DNA 1: GCTGTAGCTAGTTTTGCTTC DNA 2: GAAGCAAAACTAGCTACAGC | no binding |  |
| 6-FAM-ds20ss32 (mixed) DNA 1: GAAGCAAAACTAGCTACAGCTTTTTTTTTTTTTTTTTTTTTTTTTTTTTTTT DNA 2: GCTGTAGCTAGTTTTGCTTC |  | binds |
